Data set [1] is described as follows: immunofluorescence co-localisation with calnexin and GM130. The note with it: glycan lost; control: cells without S76A mutation.
Data set [2] is described as follows: confocal immunofluorescence (LSCM), HCT116. The note with it: glycan lost; control: wild type.
Data set [3] is described as follows: confocal co-localisation with phalloidin, calnexin, GM130. Conditions: glycan lost; control: untreated.

B1: Hsp47: S76A (protein)
parent chain: MRSLLLLSAFCLLEAALAAEVKKPAAAAAPGTAEKLSPKAATLAERSAGLAFSLYQAMAKDQAVENILVSPVVVASSLGLVSLGGKATTASQAKAVLSAEQLRDEEVHAGLGELLRSLSNSTARNVTWKLGSRLYGPSSVSFADDFVRSSKQHYNCEHSKINFRDKRSALQSINEWAAQTTDGKLPEVTKDVERTDGALLVNAMFFKPHWDEKFHHKMVDNRGFMVTRSYTVGVMMMHRTGLYNYYDDEKEKLQIVEMPLAHKLSSLIILMPHHVEPLERLEKLLTKEQLKIWMGKMQKKAVAISLPKGVVEVTHDLQKHLAGLGLTEAIDKNKADLSRMSGKKDLYLASVFHATAFELDTDGNPFDQDIYGREELRSPKLFYADHPFIFLVRDTQSGSLLFIGRLVRPKGDKMRDEL
Consider B1, for which, in data set [1], the “other: response of collagen I secretion/procollagen transport to kaempferol or OGT knockdown” value is on record as “abolishes”. Moreover, the “other: collagen I secretion by cells” value in data set [2] is listed as “decreases”.

B2: Hsp47: OSMI-1 (protein)
parent chain: B1 parent chain
As to B2, in data set [3], the localisation_or_trafficking result is on record as “changes”.

The values are drawn from article PMC12435574.
